Experimental findings from patent US20060046277 are described below.

Data set [1] has as its system EGFR kinase substrate (GST fusion, Table 2) [GST: P08515].
Another data set deals with T1, GST-Z2-Abl×1.
T1 sequence: AIYAAPF

Data set [2] relates to Abl kinase substrate (GST fusion, Table 2) [GST: P08515].
The test system of data set [3] is AMPK kinase substrate (GST fusion, Table 2) [GST: P08515].
In another data set the test system is T2, GST-Abl×1.
T2 sequence: AIYAAPF

Data set [4] concerns IKK kinase substrate (GST fusion, Table 2) [GST: P08515].
The subject of data set [5] is JNK3 kinase substrate (GST fusion, Table 2) [GST: P08515].
The test system of data set [6] is CK1 kinase substrate (GST fusion, Table 2) [GST: P08515].
In data set [7] the test system is Src kinase substrate (GST fusion, Table 2) [GST: P08515].
For data set [8], the system named is ERK kinase substrate (GST fusion, Table 2) [GST: P08515].
The test system of data set [9] is dsDNAPK kinase substrate (GST fusion, Table 2) [GST: P08515].
Data set [10] has as its system PKA kinase substrate (GST fusion, Table 2) [GST: P08515].
For data set [11], the system named is GST-dsDNA×4 [GST: P08515].
The test system of the next data set is T3, GST-dsDNA×1.
T3 sequence: GGGEETQTQDQPMEEEEV

In data set [12] the test system is GST-Z1-dsDNA×4 [GST: P08515].
For data set [13], the system named is GST-dsDNA×3 [GST: P08515].
Data set [14] relates to GST-dsDNA×2 [GST: P08515].
In data set [15] the test system is CK2 kinase substrate (GST fusion, Table 2) [GST: P08515].
For data set [16], the system named is GST-Z2-Src×2 [GST: P08515].
For data set [17], the system named is CHK kinase substrate (GST fusion, Table 2) [GST: P08515].
Data set [18] relates to GST-Z1-AMPK×3 [GST: P08515].
The subject of data set [19] is GST-Z2-AMPK×3 [GST: P08515].

JNK3, sequence (P53779 whole entry): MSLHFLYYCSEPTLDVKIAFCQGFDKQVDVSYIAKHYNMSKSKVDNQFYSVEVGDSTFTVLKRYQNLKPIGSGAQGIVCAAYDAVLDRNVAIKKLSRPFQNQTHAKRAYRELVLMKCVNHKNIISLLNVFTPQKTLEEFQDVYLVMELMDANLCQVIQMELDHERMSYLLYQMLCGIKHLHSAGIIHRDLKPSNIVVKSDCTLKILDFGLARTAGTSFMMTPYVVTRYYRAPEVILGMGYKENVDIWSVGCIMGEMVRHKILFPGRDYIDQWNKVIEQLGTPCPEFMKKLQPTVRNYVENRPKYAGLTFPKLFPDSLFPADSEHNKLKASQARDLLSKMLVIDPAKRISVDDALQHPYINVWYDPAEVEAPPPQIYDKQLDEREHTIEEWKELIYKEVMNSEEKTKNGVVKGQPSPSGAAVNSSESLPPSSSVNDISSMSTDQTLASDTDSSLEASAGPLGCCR

In the case of Abl, the “Reactivity for each of the Kinase Substrates (32P phosphorylation, autoradiogram)” value (shortened to “Reactivity for each”) in data set [1] was “+++++”; in [2] it was “+++++”; in data set [3], “+++”. Further, the “phosphorylation of the substrate on beads (32P-ATP, SDS-PAGE, autoradiogram; FIG. 6)” value (from here on “phosphorylation of the substrate”) in the data set with GST-Z2-Abl×1 and in the data set on GST-Abl×1 was “All of the protein kinase substrates reacted with their corresponding kinases” each time.
On to IKK, for which the “phosphorylation of the substrate” value in the data set with GST-IKK×4 [GST: P08515] and in the data set with GST-IKK×7 [GST: P08515] was “All of the protein kinase substrates reacted with their corresponding kinases” each time. For the same substance, the “Reactivity for each” value in data set [4] is listed as “+++++”; in [5], “+”; in data set [6] it was “+++++”; in [7], “+”; in data set [8], “+”. Further, the “phosphorylation in the 4-member substrate ladder on beads (32P-ATP, SDS-PAGE, autoradiogram; FIG. 12)” value with GST-IKK×7 [GST: P08515] is “All of the protein kinase substrates reacted with their corresponding kinases, and cross-reactivity with other substrate was minimal”.
As to PKA, the “Reactivity for each” value in data set [9], in [10] and in data set [7] was “+++++” in each case. Also, in the data set on GST-Z1-PKA [GST: P08515], the “phosphorylation of the substrate” value was “All of the protein kinase substrates reacted with their corresponding kinases”.
On to dsDNA (DNAPK), for which the “Reactivity for each” value in data set [9] and in data set [10] was “+++++” each time. For the same substance, the “phosphorylation by dsDNA PK (32P ATP, SDS-PAGE, autoradiogram; FIG. 7)” value (in data set [11]; in the data set with GST-dsDNA×1; in data set [13]; in data set [14]) was “autoradiogram of phosphorylated GST-dsDNA kinase peptide substrate fusion proteins with different number of the peptide repeats” in each case. The “phosphorylation of the substrate” value in data set [12] is listed as “All of the protein kinase substrates reacted with their corresponding kinases”.
On to CK2, for which the “phosphorylation of the substrate” value in the data set on GST-CK2×4 [GST: P08515] was “All of the protein kinase substrates reacted with their corresponding kinases”. For the same substance, the “Reactivity for each” value in data set [15] is given as “+++++”; in data set [4] it was “+”.
Turning to Src, in [16], the “phosphorylation in the 4-member substrate ladder on beads (32P-ATP, SDS-PAGE, autoradiogram; FIG. 12)” value is “All of the protein kinase substrates reacted with their corresponding kinases, and cross-reactivity with other substrate was minimal”. The “phosphorylation of the substrate” value in [16] is given as “All of the protein kinase substrates reacted with their corresponding kinases”. For the same substance, the “Reactivity for each” value in data set [5] was “+”; in data set [6] it was “+++++”; in data set [2] it was “+++++”; in data set [7] it was “+++++”; in data set [3], “+++”.
Take CHK: in data set [17], the “Reactivity for each” value is on record as “+++++”. Further, the “phosphorylation of the substrate” value in the data set with GST-CHK×5 [GST: P08515] is listed as “All of the protein kinase substrates reacted with their corresponding kinases”.
Consider CK1, for which the “Reactivity for each” value in [9] is recorded as “+++++”; in [4] it was “+”; in data set [6], “+++++”; in data set [7], “+++++”. For the same substance, in the data set with GST-CK1×4 [GST: P08515], the “phosphorylation of the substrate” value was “All of the protein kinase substrates reacted with their corresponding kinases”.
Consider AMPK, for which the “phosphorylation of the substrate” value in data set [18] and in data set [19] was “All of the protein kinase substrates reacted with their corresponding kinases” throughout. In addition, the “Reactivity for each” value in data set [3] is “+++++”.
For JNK3, the “phosphorylation in the 4-member substrate ladder on beads (32P-ATP, SDS-PAGE, autoradiogram; FIG. 12)” value in the data set on GST-JNK3×8 [GST: P08515] was “All of the protein kinase substrates reacted with their corresponding kinases, and cross-reactivity with other substrate was minimal”. In addition, the “phosphorylation of the substrate” value in the data set on GST-JNK3×8 [GST: P08515] and with GST-JNK3×3 [GST: P08515] was “All of the protein kinase substrates reacted with their corresponding kinases” in each case. Besides, the “Reactivity for each” value is “+++++” in data set [5] and “+” in [8].
Consider EGFR, for which the “Reactivity for each” value in [1] was “+++++”. Also, in the data set on GST-EGFR×3 [GST: P08515], the “phosphorylation in the 4-member substrate ladder on beads (32P-ATP, SDS-PAGE, autoradiogram; FIG. 12)” value is “All of the protein kinase substrates reacted with their corresponding kinases, and cross-reactivity with other substrate was minimal”; the “phosphorylation of the substrate” value is listed as “All of the protein kinase substrates reacted with their corresponding kinases”. In addition, the “Reactivity for each” value in data set [2] is on record as “+++++”.
